# B1: "Na(+)/H(+) exchange regulatory cofactor NHE-RF1" (Homo sapiens), O14745 (parent)
# chain: MSADAAAGAPLPRLCCLEKGPNGYGFHLHGEKGKLGQYIRLVEPGSPAEKAGLLAGDRLVEVNGENVEKETHQQVVSRIRAALNAVRLLVVDPETDEQLQKLGVQVREELLRAQEAPGQAEPPAAAEVQGAGNENEPREADKSHPEQRELRPRLCTMKKGPSGYGFNLHSDKSKPGQFIRSVDPDSPAEASGLRAQDRIVEVNGVCMEGKQHGDVVSAIRAGGDETKLLVVDRETDEFFKKCRVIPSQEHLNGPLPVPFTNGEIQKENSREALAEAALESPRPALVRSASSDTSEELNSQDSPPKQDSTAPSSTSSSDPILDFNISLAMAKERAHQKRSSKRAPQMDWSKKNELFSNL
# Variants of: B1
# Conditions: with pgfrb_human PDGFRB
row,effect of a mutation on the interaction,Variant
1,increasing interaction,D301V

# — IntAct's records for PubMed 24012959
